Results on one molecule are retold here after paper PMC10790385, “Intracellular delivery of Parkin-RING0-based fragments corrects Parkin-induced mitochondrial dysfunction through interaction with SLP-2” (Journal of Translational Medicine, 2024).

Assay [1] deals with T1, recombinant full-length human Parkin protein (aa 1-465) (human, UniProt O60260 1-465).
T1 construct: SUMO cleaved with ULP-1 protease; also called recombinant Parkin; source: E. coli One Shot BL21(DE3)pLysS, purified (IMAC, nondenaturing)
Put plainly: far-Western, overlay or dot blot; 2 µg recombinant SLP-2 separated by SDS-PAGE and transferred to a membrane, incubated with 60 µg recombinant Parkin, probed with anti-Parkin antibody. Particulars: both partners purified.

Assay [2] deals with T2, recombinant human Parkin fragment aa 138-465 (human, UniProt O60260 138-465).
T2 construct: SUMO cleaved with ULP-1 protease; source: E. coli One Shot BL21(DE3)pLysS, purified (IMAC, nondenaturing)
T2 sequence (looked up): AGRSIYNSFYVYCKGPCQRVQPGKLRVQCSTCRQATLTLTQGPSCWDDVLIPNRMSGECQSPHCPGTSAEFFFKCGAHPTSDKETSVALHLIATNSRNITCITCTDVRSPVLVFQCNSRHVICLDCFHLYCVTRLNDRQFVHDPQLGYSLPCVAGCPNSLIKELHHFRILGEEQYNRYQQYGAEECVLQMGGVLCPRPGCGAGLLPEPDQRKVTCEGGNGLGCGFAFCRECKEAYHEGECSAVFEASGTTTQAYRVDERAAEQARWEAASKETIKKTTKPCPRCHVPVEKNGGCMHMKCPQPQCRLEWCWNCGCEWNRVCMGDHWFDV
Kind of assay: far-Western, overlay or dot blot; 2 µg recombinant Parkin proteins (aa 1-465 and aa 138-465) separated by SDS-PAGE and transferred to immobilon membrane, incubated for 6 h with 80 µg recombinant SLP-2, probed with anti-SLP-2 antibody. Particulars: both partners purified.

B1: recombinant human SLP-2 protein (aa 41-356) (domain or fragment, UniProt Q9UJZ1 41-356, looked up)
chain: VPQQEAWVVERMGRFHRILEPGLNILIPVLDRIRYVQSLKEIVINVPEQSAVTLDNVTLQIDGVLYLRIMDPYKASYGVEDPEYAVTQLAQTTMRSELGKLSLDKVFRERESLNASIVDAINQAADCWGIRCLRYEIKDIHVPPRVKESMQMQVEAERRKRATVLESEGTRESAINVAEGKKQAQILASEAEKAEQINQAAGEASAVLAKAKAKAEAIRILAAALTQHNGDAAASLTVAEQYVSAFSKLAKDSNTILLPSNPGDVTSMVAQAMGVYGALTKAPVPGTPDSLSSGSSRDVQGTDASLDEELDRVKMS
notes: Stomatin-like protein 2, human, aa 41-356; SUMO cleaved with ULP-1 protease; also called recombinant SLP-2; source: E. coli One Shot BL21(DE3)pLysS, purified (IMAC, nondenaturing)
Regarding B1, the binding result in assay [1] and in assay [2] was “binds” each time.
